Data on 18 molecules can be found in patent publication US20050069542A1 (Human Genome Sciences, published 2005).

This assay concerns the target T1, flag-tagged soluble TL3 (amino acids 105-251 of SEQ ID NO:234) (Homo sapiens (Human), UniProt O75888 105-250).
T1 construct: Heterologous flag-tagged control protein, immobilized in the ELISA; also called flagged tagged TL-3; not shown: Flag tag
T1 sequence: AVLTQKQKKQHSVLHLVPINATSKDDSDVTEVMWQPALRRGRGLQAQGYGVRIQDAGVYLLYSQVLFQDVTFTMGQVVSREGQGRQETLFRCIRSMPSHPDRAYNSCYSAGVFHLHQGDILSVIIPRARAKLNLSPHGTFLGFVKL
Description: phage ELISA on immobilized flag-tagged soluble TL3. Here is the method: The individual phage isolates in the panel of phage, each phage expressing a unique scFv that bound to flag-tagged GMAD, were tested to ensure specificity for GMAD using an ELISA assay. The scFvs were tested in an ELISA for their ability to bind a heterologous flag-tagged protein, in this case—immobilized soluble TL3 (amino acids 105-251 of SEQ ID NO:234, GenBank Accesion Number NP_{—}003799, also described in International Patent Application Publication Number WO97/33902 and WO2001/96528 which are herein incorporated by reference in their entireties).
(In general: ELISA stands for enzyme-linked immunosorbent assay.)

B1: GMBC604 (scFv)
scFv: EVQLVQSGAEVKKPGESLRISCKGSGYTFTNYWINWVRQVPGKGLEWMGMIDPTDSYAKYSPSFQGHVTISTDKSVSTAYLQWRSLQASDSAIYYCVRGYSYDLDYWGKGTLVTVSSGGGGSGGGGSGGGGSQSVLTQPASVSGSPGQSITISCTGTSSDVGGYNYVSWYQQHPGKAPKLMIYEGSKRPSGVSNRFSGSKSGNTASLTISGLQAEDEADYYCSSYTTRSTRVFGGGTKLTVLG
As to B1, the binding result is given as “no binding”.

B2: GMBC638 (scFv)
scFv: QVQLVQSGGGLVKPGESLRLSCEASGFEFNYAWMSWVRQAPGKGLEWVGRSRSVASGGTTDYAAPLQDRFTISRDDSKNTLYLQVNSLKIEDTGVYFCKWEKSEYYGMDVWGRGTMVTVSSGGGGSGGGGSGGGGSQSVLTQPASVSGSPGQSITISCTGTSSDVGGYNYVSWYQQHPGKAPKLMIYEGSKRPSGVSNRFSGSKSGNTASLTISGLQAEDEADYYCSSYTTRSTRVFGGGTKLTVLG
On to B2, for which the binding result is recorded as “no binding”.

B3: GMBC626 (scFv)
scFv: EVQLVQSGGGLVKPGESLRLSCEASGFEFNYAWMSWVRQAPGKGLEWVGRSRSEASGGTTDYAAPLQDRFTISRDDSKNTLYLQVNSLKIEDTGVYFCKWEKSEYYGMDVWGRGTPVTVSSGGGGSGGGGSGGGGSQSVLTQPASVSGSPGQSITISCTGTSSDVGGYNYVSWYQQHPGKAPKLMIYEGSKRPSGVSNRFSGSKSGNTASLTISGLRAEDEADYYCSSYTTKSTQVFGGGTKLTVLG
As to B3, the binding result is on record as “no binding”.

B4: GMBC659 (scFv)
scFv: QVQLVESGGGLVKPGESLRLSCEASGFEFNYAWMSWVRQAPGKGLEWVGRSRSEASGGTTDYAAPLQDRFTISRDDSKNTLYLQVNSLKIEDTGVYFCKWEKSEYYGMDVWGRGTLVTVSSGGGGSGGGGSGGGGSQSVLTQPASVSGSPGQSITISCTGTSSDVGGYNYVSWYQQHPGKAPKLMIYEGSKRPSGVSNRFSGSKSGNTASLTISGLQAEDEADYYCSSYTTRSTRVFGGGTKLTVLG
Consider B4, for which the binding result is listed as “no binding”.

B5: GMBC665 (scFv)
scFv: EVQLVETGGGLVKPGGSLRLSCAASGFTFSDAWMNWVRQAPGKGLEWVGRIKSKGSGGTIDYAAPVKDRFTISRDDSKNTLYLQMNSLKTEDTALYYCTWDWDFYYGMNVWGQGTMVTVSSGGGGSGGGGSGGGGSSELTQDPAVSVALGQTVRITCQGDSLRSYYASWYQQKPGQAPVLVIYGKNNRPSGIPDRFSGSSSGNTASLTITGAQAEDEADYYCNSRDSSGNHVVFGGGTKLTVLG
On to B5, for which the binding result was “no binding”.

B6: GMBC635 (scFv)
scFv: EVQLVESGGGLVKPGGSLRLSCAASGFTFSDAWMNWVRQAPGKGLEWVGRIKSKGSGGTIDYAAPVKDRYTISRDDSKNTLYLQMNSLKTEDTALYYCTWDWDFYYGMNVWGKGTMVTVSSGGGGSGGGGSGGGGSSELTQDPAVSVALGQTVRITCQGDSLRSYYASWYQQKPGQAPVLVIYGKNNRPSGIPDRFSGSSSGNTASLTITGAQAEDEADYYCNSRDSSGNHVVFGGGTKLTVLG
On to B6, for which the binding result is “no binding”.

B7: GMBC632 (scFv)
scFv: QVQLVQSGGGLVKPGGSLRLSCAGSGFKFSDAWMNWVRQAPGKGLEWVGRIKSKGSGGTIEYAAPVKDRFIISRDDSKDTLYLQMNSLKTEDTALYYCTWDWDFYYDMNVWGQGTMVTVSSGGGGSGGGGSGGGGSSELTQDPAVSVALGQTVRITCQGDSLRSYYASWYQQKPGQAPVLVIYGKNNRPSGIPDRFFGSSSGNTASLTITGAQAEDEADYYCNSRDSSGNHVVFGGGTKLTVLG
Take B7: the binding result is “no binding”.

B8: GMBC648 (scFv)
scFv: QVQLVESGGGLVKPGGSLRLSCAASGFTFSDAWMNWVRQAPGKGLEWVGRIKSKRSGGTIDYAAPVKDRFTISRDDSKNTLYLQMNSLKTEDTALYYCTWDWDFYYGMNVWGQGTMVTVSSGGGGSGGGGSGGGGSSELTQDPTVSVALGQTVRITCQGDSLRSYYASWYQQKPGQAPVLVIYGKNNRPSGIPDRFSGSSSGNTASLTITGAQAEDEADYYCNSRDSSGNHVVFGGGTKLTVLG
Turning to B8, the binding result was “no binding”.

B9: GMBC657 (scFv)
scFv: QMQLMQSGGGLVKPGGSLRLSCAGSGFKFSDAWMNWVRQAPGKGLEWVGRIKSKGSGGTIEYAAPVKDRFIISRDDSKDTLYLQMNSLKTEDTALYYCTWDWDFYYGMNVWGQGTLVTVSSGGGGSGGGGSGGGGSSELTQDPAVSVALGQTVRITCQGDSLRSYYASWYQQKPGQAPVLVIYGKNNRPSGIPDRFSGSSSGNTASLTITGAQAEDEADYYCNSRDSSGNHVVFGGGTKLTVLG
In the case of B9, the binding result is given as “no binding”.

B10: GMBC628 (scFv)
scFv: QVQLQQSGAEVKKPGASVRVSCKASGYTFTSYGFSWVRQAPGQRLEWMGWISAYKGNANYAEKFQGRVTMTTDTSTNTAYMELRSLRSDDTAVYYCARTRISVAGLDYYYYGLDVWGRGTLVTVSSGGGGSGGGGSGGGGSSELTQDPAVSVALGQTVRITCQGDSLRSYYTNWFQQKPGQAPLLVVYAKNNRPSGIPDRFSGSSSGNTASLTITGAQAEDEADYYCNSRDSSGNHVVFGGGTKLTVLG
Regarding B10, the binding result was “no binding”.

B11: GMBC618 (scFv)
scFv: EVQLVQSGGGLVKPGGSLRLSCAASGFKFDDAWMNWVRQAPGKGLEWVGRIKSKRSGGTIDYAAPVKDRFTISRDDSKNTLYLQMNSLRTEDTALYYCTWDWDFYYGMNVWGRGTLVTVSSGGGGSGGGGSGGGGSQSVLTQPPSASGTPGQRVTISCSGSSSNIGSNTVNWYQRLPGAAPQLLIYNNDQRPSGIPDRFSGSKSGTSGSLVISGLQSEDEADYYCASWDDSLNGRVFGGGTKLTVLG
Take B11: the binding result is given as “no binding”.

B12: GMBC629 (scFv)
scFv: QVQLVESGGGLVKPGGSLRLSCAGSGFKFSDAWMNWVRQAPGKGLEWVGRIKSKGSGGTIEYAVPVKDRFIISRDDSKDTLYLQMNSLKTEDTALYYCTWDWDFYYGMNVWGQGTLVTVSSGGGGSGGGGSGGGGSSELTQDPAVSVALGQTVRITCQGDSLRSYYTNWFQQKPGQAPLLVVYAKNKRPSGIPDRFSGSSSGNTASLTITGAQAEDEADYYCHSRDSSGNHVLFGGGTKLTVLG
For B12, the binding result was “no binding”.

B13: GMBC729 (scFv)
scFv: QVQLQESGGGLVKPGGSLRLSCAGSGFKFSDAWMNWVRQAPGKGLEWVGRIKSKGSGGTIEYAAPVKDRFIISRDDSKDTLYLQMDSLKTEDTALYYCTWDWDFYYGMNVWGQGTLVTVSSGGGGSGGGGSGGGGSSELTQDPAVSVALGQTVRITCQGDSLRNYYTNWFQQKPGQAPLLVVYAKNKRPSGIPDRFSGSSSGNTASLTITGAQAEDEADYYCHSRDSSGNHVLFGGGTKLTVLG
In the case of B13, the binding result is given as “no binding”.

B14: GMBC685 (scFv)
scFv: QVQLVESGGVVVQPGGSLRLSCAASGFTFSDAWMNWVRQAPGKGLEWVGRIKSKGSGGTIDYAAPVKDRFTISRDDSKNTLYLQMNSLKTEDTALYYCTWDWDFYYGMNVWGKGTMVTVSSGGGGSGGGGSGGGGSSELTQDPAVSVALGQTVRITCQGDSLRSYYTNWFQQKPGQAPLLVVYAKNKRPSGIPDRFSGSSSGNTASLTITGAQAEDEADYYCHSRDSSGNHVLFGGGTKLTVLG
With B14, the binding result is on record as “no binding”.

B15: GMBC619 (scFv)
scFv: EVQLVESGGGVVQPGRSLRLSCAASGFTFRSYGMHWVRQAPGKGLEWVAVITYDGSNKYYADSVKGRFTISRDNSKNTLYLQMNSLRADDTAVYYCARDGGGWYHPRLDYWGQGTMVTVSSGGGGSGGGGSGGGGSSELTQDPAVSVALGQTVRITCQGDSLRSYYASWYQQKPGQAPVLVIYGKNNRPSGIPDRFSGSSSGNTASLTITGAQAEDEADYYCNSRDSSGNHVVFGGGTKLTVLG
For the molecule B15, the binding result is on record as “no binding”.

B16: GMBC621 (scFv)
scFv: EVQLVQSGGGVVQPGRSLRLSCAASGFTFSSYGMHWVRQAPGKGLEWVAVISYDGSNKYYADSVKGRFTISRDNSKNTLYLQMDSLRAEDTAVYFCAKRGLWTPIDYWGKGTLVTVSSGGGGSGGGGSGGGGSSELTQDPAVSVALGQTVRITCQGDSLRSYYASWYQQKPGQAPVLVIYGKNNRPSGIPDRFSGSNSGNTASLTITGAQAEDEADYYCNSRDSSGNHVVFGGGTKLTVLG
As for B16, the binding result is on record as “no binding”.

B17: GMBC630 (scFv)
scFv: QVQLVESGGGLVQPGRSLRLPCAASGFTFSSYGMHWVRQAPGKGLEWVAVISYDGSNKYYADSVKGRFTISRDNSKNTLYLQMNSLRAEDTAVYYCAKATSLLNAFDIWGRGTMVTVSSGGGGSGGGGSGGGGSSELTQDPAVSVALGQTVRITCQGDSLRSYYASWYQQKPGQAPVLVIYGKNNRPSGIPDRFSGSSSGNTASLTITGAQAEDEADYYCNSRDSSGNHVVFGGGTKLTVLG
As for B17, the binding result is “no binding”.

B18: GMBC627 (scFv)
scFv: GVQLVQSGGEVKKPGASVRVSCKASRYIFSNYGFSWVRQAPGQGLEWMGSIRNDKGSTNYAQGFQDRLTMTTDTSTNTVFMELRSLSSDDTAVYYCASAPYYYGMGIWGKGTLVTVSSGGGGSGGGGSGGGGSQSVLTQPASVSGSSGQSITISCTGTSSDVGGYNYVSWYQQHPGKAPKLMIYEVGNRPSGVSNRFSGSKSGNTASLTISGLQAEDEADYYCSSYTTRSTRVFGGGTKLTVLG
For B18, the binding result was “no binding”.
